# Measured values taken from the DeepSol protein solubility set.
# Assay: soluble on expression in E. coli; label from the status in PepcDB or PDB records
row,Sequence,soluble on expression in E. coli
1,MTQPEAVFFDCDGTLVDSEVICSRAYVHMFQEFGITLDLAEIFKRFKGVKLYEIIDTINAEYGVNLQKATLEPIYRAEVARLFDSELEVIPGAQALLDAVSVPMCVVSNGPVSKMQHSLGRTGLLRHFTDRLYSGYDIQRWKPDPALMFHAAEAMQVKAENCILVDDSSAGAQSGIAAGMEVFYFCADPHNQPIDHPKVTTFTDLAELPALWQARGWDITR,not soluble
2,MGSDKIHHHHHHMEYIVRTHKIGIYEKALPKNLSWQDRLSIAKACGFDFVEISIDETDERLARLDWSKAERIELVTAIISTGITIPSMCLSGHRRFPFGSRDEATRQKAFEIMKKAIQLAVDLGIRTIQLAGYDVYYEEQDEGTIQRFQQGLEWAVKLAASHQVTIAVEIMDTQFISSISRWKKWDNIIRSPWFTVYPDLGNLSAWNENVSEELKLGIDKISAIHLKDTYKVTTTSKGQFRDVPFGAGCVDFVQCFRILSELNYRGAFLVEMWTEKAEEPITEIINARRWIEQKMKEGGFQC,not soluble
3,FLNTISTKDFKQKMADKTTGFVYVGRPTCEDCQAFQPILKKELEKRQPDQKMAYYNTDKASEKSRDDMIALLKKMDIDSVPTMVYLKDGKVASTYAATDEPAKLTNWMNKVSG,not soluble
4,MGSDKIHHHHHHMKIILGIPDLKIPVWTFKQPLMINQLNWDRPSWENETWVDSGGYQIMVRGIKVEIEKVVEKYKILDATQYMSLDIPSIPCHKPSELNYKYFEYLYTVFDKKIVPVIHAYDPESIKKSIDFYSQYTDLVAFGGIVPPTLNKSGNKKLAVAIYYLVRKLWKGKIHVLGAGSPFMRKVYFNADSVDTSTYRVKGIHGMVIIPGKGERYVGNRKIVWGTKRASEEELEILLSFLDKTHYPFQIRFDNWIDRSLINAWVLLNSEYESNNPLIRYSKKLDTFAEDEIEEEVNELCM,not soluble
5,LETLNNASKTIDLQGKISDVDGDTLSITLHGSARFSLNGTQVTFTPNGFVGLDQAVYSVEDGKGGYALANIVAISEDANPPVPNMAPTANDAQFTLDVAKNVTFNIDLVAQRLIADADGDALSIAHIYTANNRATKQGATGITYTPGAFRGVDQFTYVITDGKDGYAINAITVVVNDSTPANKIPTAGPVTAKMLHNDPAITISVNSAVSDADGDTLKIVSISGALGQASINPANALEMLYEPKGFVGTDRFVYVVSDDNGGYAMGEVTVTVTDSNPTAPVANTVQENTLLDTPINIDLSAYISDKETETANLVISNVTNATSPAVATLSGQTVIYTPNGFTGNDILTYTVTDGRHSTNGTIVISVNAHGAHAIQADNLEGGTEPNAPFIHDLSALISTTDPTAGELIVVNAIGGALGTATVTNNILTYTPKLGVFGKDRLIYTVKDSHNPAHYTQGTISI,not soluble
6,MTEEIAGFQTSPKAQVQAAFEEIARRSMHALSFLHPSMPVYVSDFTLFEGQWTGCVITPWMLSAVIFPGPDQLWPLRKVSEKIGLQLPYGTMTFTVGELDGVSQYLSCSLMSPLSHSMSIEEGQRLTDDCARMILSLPVTNPDVPHAGRRALLFGRRSGENA,not soluble
7,MDGSQGSTDYGDHVVLRYGGTREMVPLIRHEQMLDMLMERARQIVQGFGNLDTRNMYLFRHEYNSPTLLYPITSASQITSGSILEIILVDRTEAAVIPHVVEPESYMRPTFCDFCGEMLTGLMRQGVKCKNCNGNFHKRCSNAARNNCGAPGAPGAQPSRPPILPPIPTTPTGFPVAALSTPTGLPHTLIEHSYRQFTVCKVCDHLLVGLVKQGLKCRDCGVNVHRKCAMELASNCVLSENAISRVNFTDPEGPGSSSSDNIPLFRLPGQVGTRATEKKKLEGWMMHFILSDPERRLKHYWMMQSNAIHLYNEYSEGIGVNPNRVYRIIPLAEITSVVQNNGKSVLAKHPPHCFEIRTTTNTVFCVGEDYHAFSGGPPKKIPRSMSVRPSSNTTMWFQFIKESLQPPSRNEDNAEQALEFANLYQVLSDKTLGSGQFGTVYSAIQRHSGKEVAVKVISKERFSKKGSGAESMRAEVAILQQTCHPGIVCLEFMCETKDKIFVVMEKMNGDMLEMILSQELGRLNSRATKFLLVQILCALKYLHDQGIAHCDLKPENVLLSDMGSNFPQTKICDFGYARFIPESQFRKTVVGTPAYLPPEVLQRKGYNKSLDMWSVGVIIYVTLSGTFPFNEGEEISEQIQNASFMFPTEPWSEVEPLAVDLIQKLLKVEIEARMSIEQCLDHGWLKGEQLYRDLRDLEVRLNTPRYLTSPQDDILYGTLVNP,not soluble
8,MGKLAFLFPGQGSQAVGMGKQLAENNKEVANVFAKADEVLQDSLSEVIFEGSQEKLTLTTNAQPALLTTSFAILTALKEYDITPDFVAGHSLGEYSALVAAGALTFEDAVYAVRKRGEYMEEAVPGGEGAMAAILGADPHMLKRVTEEVTGEGYAVQIANMNSTKQIVISGTKQGVEIASQRAKENGAKRAIPLKVSGPFHSALMKPAAEKFQSVLNEITIQDTNIPVIANVTADVITSGAHIQEKLIEQLYSPVLWYPSIEYMVNQGVDTFIEIGPGKVLAGLMKSIDSSVKAYAIYDEETLKDTISNLRGEN,not soluble
9,SVFPQQTGQLAELQPQDRAGARASWMPMFQRRRRRDTHFPICIFCCGCCHRSKCGMCCKT,not soluble
10,MGSDKIHHHHHHMNTDDILFSYGEEDIPLKALSFPIFETTNFYFDSFDEMSKALRNGDYEFVYKRGSNPTTRLVEKKLAALEECEDARLVASGMSAISLSILHFLSSGDHVVCVDEAYSWAKKFFNYLSKKFDIEVSYVPPDAERIVEAITKKTKLIYLESPTSMRMKVIDIRKVTEAAGELKIKTVIDNTWASPIFQKPKLLGVDVVVHSATKYISGHGDVMAGVIAGDVEDMKNIFVDEYKNIGPVLSPIEAWLILRGLRTLELRMKKHYENALVVSDFLMDHPKVLEVNYPMNPRSPQYELASSQMSGGSGLMSFRLKTDSAEKVKEFVESLRVFRMAVSWGSHENLVVPRVAYGDCPKKDVNLIRIHVGLGDPEKLVEDLDQALKKI,not soluble
11,MGSDKIHHHHHHMQNIIIEARVNELATRIGNPHVPFLPAEVIADAKACHDAGASIFHFHGRNEDGTPSHDPNFYLETNAGIRAQSDILIHPTLGYVANDTDAKGRFAAIEQMMQSAETAPDFAPMDTGSVNVDWWNPDEGKYDTTELIYKNSTGTLMYFADRIRHYNLTPYLVSWNVSFTRQIEQFLKMGVLDAPAYICFCMTDEIIFAGHPGTEAGLDAHTAFLPPEFETVWTVVNYKGDLFQLTEKIIRTGGHISIGLGDYAYMDGSRHMTNAEVIAKVADQARRLGREPASVAETREILNMKTPRIAA,not soluble
12,MIMLIKKLLETTAAAEEKARQLAEMETDEAWAVYLAEAERQRKLWQYVHYLVAGANADGRAEREQSKAGAPRCDLLQAMAAAEWEKAMLCQNVCQSLNGAAKQAVDAVFRQALRYSGQFLAMAYDERARQTAD,not soluble
13,MEASMERFDNAPETALAWHRQGLGAALATVVETWGSAPRRVGAQLVIGGDGRIEGSVSGGCVEGAVIVEALEALEEGQARLLEFGVSDEDAFAVGLACGGTIRVLVEPVGQVLSEVMLAELVAARASRQALAYVVDTARGTRALVRDAYPERMRMDRSGFDEDGRTFVAVHNPPLRLIVVGAVHIAQALVPMARIAGYDPVVIDPREAFASDARFPGETILHDWPDEAVAKLGLDARTALVLLTHDPKLDDPALEAALAADVFYIGALGSTRTHAKRVARMQEAGFTEAQIGRIHGPVGLDIGAAGPAEIAVAILAQMTAVLRGRA,soluble
14,MGSDKIHHHHHHMVEEQHVTQYGSLLKPCMSRLENLLVHQYVECWLYWSCYETETDTRIRGIWQFMFEQELKHLHIALELLRQYEKKDWQEVIPDAEFPAPLVLESNIEYVRCVLGSTVNDTACRERYVDVRNNAPETFIRYQRMVNDPVRNVMSHTFIEDYIRKNGEDYRFEVAPNPVPELRDRTKDNICVGRQPLCRNRY,not soluble
15,MQEKQHIHIGEIIQRLSGRKLPQPLIRLLERLIHQDEINDILDRYGHLEGVDFMTALVGYFHVDIDWNGADRLPSDKRCLFVSNHPLGGLDGICLSHLIGSHYDSDVRYIVNDILFHLRPLRKIFVPVNTRGRQKRESIDRLQEALESDLPVITFPAGFCSRLIEGKVQDTPWKKSFVRQAYASKRDIVPLFFDGLNSKRFYRIERLRQLLGLKFNIGMALLPDEMFRSKGRHFRVFAGRPIPWQSLASAPRDTAEQALHIRSLVYDLSPSALKK,not soluble
16,GSAGERIYNISGNGSPLADSKEIFLTVPVGGGESLRLLASDLQRHSIAQLDPEALGNIKKLSNRLAQICSSIRTHK,soluble
